In patent US20190256597:

System: T1, cleavable peptide CP(AQ), Lys(AQ)SerGlyProLeuGlyValArgGlySerSerCys
T1 sequence: KSGPLGVRGSSC

purified, recombinant MMP2 (BioLegend, #554304)
proteolytic cleavage followed by thin layer chromatography: after the incubation of CP(AQ) with MMP2, the compound was able to shift organic solution, with a transformed behavior from hydrophilic to hydrophobic
